Source: patent publication US11845963B2, “HSD17B13 variants and uses thereof” (Regeneron Pharmaceuticals, Inc., priority 2017, dated 2023)
“Also recorded” adds a separate entry of the source.

T1: recombinant human HSD17B13 (Homo sapiens, UniProt Q7Z5P4)
T1 sequence (Q7Z5P4 20-300): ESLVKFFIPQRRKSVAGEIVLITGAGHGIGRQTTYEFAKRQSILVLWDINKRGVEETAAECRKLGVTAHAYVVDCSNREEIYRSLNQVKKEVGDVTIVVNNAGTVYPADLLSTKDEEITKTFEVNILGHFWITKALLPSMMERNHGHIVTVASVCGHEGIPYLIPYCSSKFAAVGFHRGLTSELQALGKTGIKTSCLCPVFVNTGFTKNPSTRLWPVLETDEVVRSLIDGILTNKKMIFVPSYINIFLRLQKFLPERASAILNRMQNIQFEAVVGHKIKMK

T2: recombinant human HSD17B13 (Homo sapiens, UniProt Q7Z5P4)
T2 construct: Transcript A, which encodes the full-length 300 amino acid protein; 10xHis (C); host or cells: E. coli
T2 sequence (Q7Z5P4 with tags, fused parts or gaps): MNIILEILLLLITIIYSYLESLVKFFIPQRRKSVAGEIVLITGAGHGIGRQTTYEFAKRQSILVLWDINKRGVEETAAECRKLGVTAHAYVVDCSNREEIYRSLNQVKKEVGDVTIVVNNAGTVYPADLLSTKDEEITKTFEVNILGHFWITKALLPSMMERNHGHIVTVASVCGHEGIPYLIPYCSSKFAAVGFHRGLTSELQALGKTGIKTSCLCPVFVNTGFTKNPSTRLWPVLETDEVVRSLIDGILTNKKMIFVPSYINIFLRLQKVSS


Legend:
[1] = test system: HepG2 cells overexpressing HSD17B13 Transcript A or D or GFP; assay: Quantification of intracellular triglyceride content in stable cell lines; type: cell-based, human; settings: for intracellular triglyceride content of overexpressing cell lines versus GFP control: with oleic acid treatment, FIG. 10
Procedure: HepG2 cells were cultured in Eagle's Minimum Essential Medium supplemented with 10% fetal bovine serum. HSD17B13 transcripts A and D were sub-cloned into Myc-DDK backbone lentivirus constructs, and lentivirus were generated. HepG2 cells were infected with lentivirus carrying the HSD17B13 transcripts. Stable cell lines expressing each HSD17B13 transcript were selected with 1-3 mg/ml Geneticin G-418 sulfate in complete culture medium for two weeks. Following fixation, HSD17B13 isoforms were detected with mouse anti-Myc antibody. Lipid droplets were labeled with BODIPY FL dye (Sigma). Secondary antibodies for immunofluorescence were Alexa Fluor 488 donkey anti-rabbit IgG and Alexa Fluor 594 donkey anti-mouse IgG (Jackson ImmunoResearch).
The triglyceride (TG) content from the stable cells was determined using a TG quantification kit (Abcam). In the assay, TG are converted to free fatty acids and glycerol. The glycerol is then oxidized to generate a product which is quantified (spectrophotometry at λ=570 nm).

[2] = biological target: T1, recombinant human HSD17B13; assay: Substrate screening of steroid and bioactive lipid libraries against purified recombinant HSD17B13 (NADH-Glo); type: biochemical; settings: 265 unique putative substrates tested
Procedure: Reactions were performed in a final volume of 40 μl of assay buffer (0.2 M Tris-HCl, pH 7.5) which contained 500 μM NAD^+, 5 μM bioactive lipid or 50 μM steroid (all in a final concentration of 5% DMSO), and 100 ng recombinant human HSD17B13. Reactions were incubated for 3 hours, at 23° C. after which an equal volume NADH-Glo Detection Reagent (Promega) was added. Following a 1 hour incubation at 23° C., the relative light units (RLUs) were measured on an Envision Plate Reader (Perkin Elmer). Raw RLU values were normalized as percent of control (50 μM estradiol) following subtraction of negative control (5% DMSO) using the following formula: Percent of control (POC)=100×(Sample (RLU)−Negative CTRLaverage)/(Positive CTRLaverage−Negative CTRLaverage).

[3] = biological target: T2, recombinant human HSD17B13; assay: In vitro enzymatic activity of purified recombinant HSD17B13 isoforms A and D (NADH production, NAD(P)H-Glo); type: biochemical; settings: FIG. 4E
Procedure: Recombinant human HSD17B13 protein was purified from E. coli (Genscript) transformed with plasmid DNA harboring HSD17B13 transcript A or transcript D. The HSD17B13 variants contained a 10×His tag at the C terminus and were purified from soluble fraction using a Ni2^+ affinity purification. Enzymatic activity was determined through measurement of NADH production using the NAD(P)H-Glo Detection System (Promega). Reactions were performed for 3 hours at 25° C. in 0.2 M Tris-HCl, pH 7.5, 0.5 mM NAD^+, 75 μM of substrate (Sigma) and 500 ng purified enzyme in a final volume of 100 μL. After incubation, 20 μL of the reaction was combined with 20 μL luciferase reagent (Promega), incubated at room temperature for 1 hour and read on an Envision Plate Reader (Perkin Elmer).

[4] = test system: HEK293 cells overexpressing HSD17B13 transcript A, transcript D or GFP; assay: Cell-based conversion of estradiol to estrone in culture media, LC-MS; parameters: species or system human; settings: overexpressed in HEK293 cells; FIG. 4F
Procedure: HEK293 cells overexpressing HSD17B13 transcript A, transcript D or green fluorescent protein (GFP, control) were used to investigate the activity of HSD17B13 against estradiol in a cell-based assay. Estradiol (1 μM) was fed to each cell type. After 48 hours, the media was collected and the concentration of estradiol and its converted product estrone were identified and quantified by LC-MS.

| Molecule | intracellular triglyceride content of overexpressing cell lines versus GFP control [1] | conversion of estradiol (substrate) to estrone (product) measured in the culture media [4] | other results |
| --- | --- | --- | --- |
| CCCCCCCC/C=C\CCCCCCCC(=O)O [oleic acid, reference compound] | – | – | triglyceride (TG) content after oleic acid treatment ([1]; increasing concentrations of oleic acid, control (GFP), HSD17B13 transcript A and D HepG2 cell lines, FIG. 10B): increased triglyceride (TG) content to a similar extent |
| CCCCC/C=C\C[C@@H](O)/C=C/C=C/C=C\[C@@H](O)CCCC(=O)O [leukotriene B4] | – | – | identified as enzymatic substrate of HSD17B13 [2]: enzymatic substrates of HS17B13 |
| HSD17B13 isoform D: HSD17B13 protein Isoform D, SEQ ID NO:42; prematurely truncated protein encoded by Transcript D of the rs72613567 variant (protein, homo sapien, prematurely truncated protein encoded by Transcript D of the rs72613567 variant) MNIILEILLLLITIIYSYLESLVKFFIPQRRKSVAGEIVLITGAGHGIGRQTTYEFAKRQSILVLWDINKRGVEETAAECRKLGVTAHAYVVDCSNREEIYRSLNQVKKEVGDVTIVVNNAGTVYPADLLSTKDEEITKTFEVNILGHFWITKALLPSMMERNHGHIVTVASVCGHEGIPYLIPYCSSKFAAVGFHRGLTSELQALGKTGIKTSCLCPVFVNTGFTKNPSTRLWPVLETDEVVRSLIDGILTNKKMIFVPSYINIFLRLQKVSS | No differences in intracellular triglyceride content | did not show much conversion; also recorded: greatly reduced activity towards estradiol | activity towards estradiol in vitro compared to HSD17B13 isoform A ([3]; recombinant protein, NAD+ cofactor): greatly reduced activity towards estradiol; enzymatic activity of the corresponding values for isoform A ([3]; substrates 17-beta estradiol, leukotriene B4 (LTB4), 13(S)-HODE): < 10% |
| HSD17B13 isoform A: HSD17B13 protein Isoform A, SEQ ID NO:39; full-length 300 amino acid protein encoded by Transcript A (protein, homo sapien, full-length 300 amino acid protein encoded by Transcript A) MNIILEILLLLITIIYSYLESLVKFFIPQRRKSVAGEIVLITGAGHGIGRQTTYEFAKRQSILVLWDINKRGVEETAAECRKLGVTAHAYVVDCSNREEIYRSLNQVKKEVGDVTIVVNNAGTVYPADLLSTKDEEITKTFEVNILGHFWITKALLPSMMERNHGHIVTVASVCGHEGIPYLIPYCSSKFAAVGFHRGLTSELQALGKTGIKTSCLCPVFVNTGFTKNPSTRLWPVLETDEVVRSLIDGILTNKKMIFVPSYINIFLRLQKFLPERASAILNRMQNIQFEAVVGHKIKMK | No differences in intracellular triglyceride content | showed robust conversion | – |
